B1: CIP2A(1-330), prey of the GST pull-down (domain or fragment)
chain: not shown
B2: GST-CIP2A(1-330) (domain or fragment)
chain: not shown
B3: CIP2A(331-560) (domain or fragment)
chain: not shown

Key:
GST-CIP2A(1-330) = molecular target: B2; assay: pull-down
CIP2A(1-560)-V5 = CIP2A(1-560)-V5 (human, UniProt Q8TCG1 1-560); assay: pull-down

| binding result (GST-CIP2A(1-330)) | binding result (CIP2A(1-560)-V5) | Binder |
| --- | --- | --- |
| binds | – | B1 |
| – | binds | B2 |
| – | binds | B3 |

— paper doi:10.1101/2025.10.13.682046 (bioRxiv, 2025)
